Experimental data published in patent US7838495B2, “Compositions and methods of use of EPB1, and ErbB3 binding protein” (University of Maryland, Baltimore, priority 2007, dated 2010).

Tested on: C81 cells
Test: HRG-induced growth of C81 transfectants
Assay type: cell-based, human
Details: ectopic expression of EBP1, androgen-free media
Method: FIG. 6A-C. EBP1 overexpression inhibits the response to HRG A. EBP1 and vector control transfected cells were plated in complete media at 5×10^3 cells/well for one day. The next day, cells were switched to steroid reduced-media and HRG added at the indicated concentrations. Total cell numbers were determined seven days later by MTT assay. Each point represents mean±S.E. of 6 wells. Data is representative of three experiments. B. AKT activation in response to HRG C81-EBP1 or vector control cells were serum starved overnight and then treated with HRG (20 ng/ml) for the indicated times (mm). Cell lysates were immunoblotted with antibody to phospho-AKT or total AKT as indicated. C. […]
Western Blot Analysis. […] For soft agar growth assays, increasing concentrations of cells (as indicated) were plated in 35 mm Petri dishes in 0.3% agar in complete media and colonies were counted after 10 days of incubation (21). […] Relative cell growth was determined using a Promega Proliferation Reagent (Promega, Madison Wis.) as per manufacturer's instructions with absorbance being read at […] using a Dynex plate reader. […] Luciferase activity was determined using the Promega Dual luciferase assay kit as described by the manufacturer. […] Tumors were measured with calipers. Tumor volumes were calculated by the formula width^2×length/2 […]. Mean tumor volume±S.D. were calculated and plotted against time. […]

B1: EBP1: ErbB3 binding protein (SEQ ID NO: 2), AR corepressor, here ectopically expressed in cancer cells by stable transfection of an expression plasmid (protein, listed as Homo sapiens)
chain: MSGEDEQQEQTIAEDLVVTKYKMGGDIANRVLRSLVEASSSGVSVLSLCEKGDAMIMEETGKIFKKEKEMKKGIAFPTSISVNNCVCHFSPLKSDQDYILKEGDLVKIDLGVHVDGFIANVAHTFVVDVAQGTQVTGRKADVIKAAHLCAEAALRLVKPGNQNTQVTEAWNKVAHSFNCTPIEGMLSHQLKQHVIDGEKTIIQNPTDQQKKDHEKAEFEVHEVYAVDVLVSSGEGKAKDAGQRTTIYKRDPSKQYGLKMKTSRAFFSEVERRFDAMPFTLRAFEDEKKARMGVVECAKHELLQPFNVLYEKEGEFVAQFKFTVLLMPNGPMRITSGPFEPDLYKSEMEVQDAELKALLQSSASRKTQKKKKKKASKTAENATSGETLEENEAGD
modifications: FLAG tag
B1 was tested, and the “ability of C81 cells to grow in response to HRG” value was “completely abrogated”.
